# Experimental data reported in publication PMC5095074 (2016).
# B1: GST-E-cadherin-cytoplasmic domain (cd) [human] / Purified β-catenin [not stated] (parent complex)
# chain 1: RAVVKEPLLPPEDDTRDNVYYYDEEGGGEEDQDFDLSQLHRGLDARPEVTRNDVAPTLMSVPRYLPRPANPDEIGNFIDENLKAADTDPTAPPYDSLLVFDYEGSGSEAASLSSLNSSESDKDQDYDYLNEWGNRFKKLADMYGGGEDD
# chain 2: MATQADLMELDMAMEPDRKAAVSHWQQQSYLDSGIHSGATTTAPSLSGKGNPEEEDVDTSQVLYEWEQGFSQSFTQEQVADIDGQYAMTRAQRVRAAMFPETLDEGMQIPSTQFDAAHPTNVQRLAEPSQMLKHAVVNLINYQDDAELATRAIPELTKLLNDEDQVVVNKAAVMVHQLSKKEASRHAIMRSPQMVSAIVRTMQNTNDVETARCTAGTLHNLSHHREGLLAIFKSGGIPALVKMLGSPVDSVLFYAITTLHNLLLHQEGAKMAVRLAGGLQKMVALLNKTNVKFLAITTDCLQILAYGNQESKLIILASGGPQALVNIMRTYTYEKLLWTTSRVLKVLSVCSSNKPAIVEAGGMQALGLHLTDPSQRLVQNCLWTLRNLSDAATKQEGMEGLLGTLVQLLGSDDINVVTCAAGILSNLTCNNYKNKMMVCQVGGIEALVRTVLRAGDREDITEPAICALRHLTSRHQEAEMAQNAVRLHYGLPVVVKLLHPPSHWPLIKATVGLIRNLALCPANHAPLREQGAIPRLVQLLVRAHQDTQRRTSMGGTQQQFVEGVRMEEIVEGCTGALHILARDVHNRIVIRGLNTIPLFVQLLYSPIENIQRVAAGVLCELAQDKEAAEAIEAEGATAPLTELLHSRNEGVATYAAAVLFRMSEDKPQDYKKRLSVELTSSLFRTEPMAWNETADLGLDIGAQGEPLGYRQDDPSYRSFHSGGYGQDALGMDPMMEHEMGGHHPGADYPVDGLPDLGHAQDLMDGLPPGDSNQLAWFDTDL
# Variants of: B1
# Assay: GST pull-down, immunoblot anti-β-catenin, quantified; purified proteins; mean ± SD of three experiments; parent: 1; read off a plot
row,ratio to parent,Variant
1,~0.39,chain 1 T57E
2,~1.1,chain 1 T57A
